± gives the uncertainty stated by the source.
Test: protein stability index of a GFP-peptide fusion (yeast GPS) (PSI 1-4); higher = more stable; sorted into four equal gates, so the index is relative within each strain
In short: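 Sequencing reads from sorted gates were used to score each peptide. The library consisted of tiled 17-residue yeast protein peptides fused downstream of GFP on a Cherry-expressing plasmid, pooled and carried in yeast. Mid-log cultures in leucine-free medium were split into four equal gates by GFP/Cherry ratio, and each gate's plasmids were PCR-amplified and Illumina-sequenced. The protein stability index adds up, over all gates, the read frequency multiplied by the gate number.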

SENRNNIKSSISNGNLA [YOR098C/NUP1]
protein stability index (pdr5∆): 3.65 ± 0.24
protein stability index (san1∆): 2.96 ± 0.22
protein stability index (ubr1∆): 3.17 ± 0.24

SEQKMKEDADLKRMEIL [SIR4]
protein stability index (doa10∆): 2.99 ± 0.066
protein stability index (pdr5∆): 3.34 ± 0.11
protein stability index (san1∆): 3.49 ± 0.059
protein stability index (ubr1∆): 3.28 ± 0.073

SERDSKDRYINGDKKVD [YMR129W/POM152]
protein stability index (doa10∆): 3.08 ± 0.14
protein stability index (pdr5∆): 3.11 ± 0.092
protein stability index (san1∆): 3.15 ± 0.091
protein stability index (ubr1∆): 3.1 ± 0.1

SETPLQKTVNLKNIMKV [RPN4]
protein stability index (doa10∆): 2.25 ± 0.08
protein stability index (pdr5∆): 2.6 ± 0.085
protein stability index (san1∆): 2.56 ± 0.11
protein stability index (ubr1∆): 2.48 ± 0.043

SETREKELESIDVLLEQ [RPB4]
protein stability index (doa10∆): 3.04 ± 0.13
protein stability index (pdr5∆): 3.11 ± 0.096
protein stability index (san1∆): 2.86 ± 0.11
protein stability index (ubr1∆): 3 ± 0.095

SEVANNGLIISWSNGKI [RRP42]
protein stability index (doa10∆): 2.28 ± 0.13
protein stability index (pdr5∆): 1.66 ± 0.054
protein stability index (san1∆): 3.03 ± 0.091
protein stability index (ubr1∆): 2.54 ± 0.14

SEYKVAFPHLYNSRPRS [PRP8]
protein stability index (doa10∆): 2.91 ± 0.071
protein stability index (pdr5∆): 2.66 ± 0.072
protein stability index (san1∆): 2.85 ± 0.086
protein stability index (ubr1∆): 2.77 ± 0.06

SFAKLVPCEGKDVTQGL [SMC2]
protein stability index (doa10∆): 1.62 ± 0.08
protein stability index (pdr5∆): 2.07 ± 0.088
protein stability index (san1∆): 1.5 ± 0.23
protein stability index (ubr1∆): 1.86 ± 0.08

SFATATCVTCHWNLPGE [SIR2]
protein stability index (doa10∆): 1.64 ± 0.068
protein stability index (pdr5∆): 1.97 ± 0.11
protein stability index (san1∆): 1.9 ± 0.084
protein stability index (ubr1∆): 1.92 ± 0.064

SFDVAISTACPRLDDVV [SMC4]
protein stability index (doa10∆): 3.12 ± 0.083
protein stability index (pdr5∆): 3.34 ± 0.051
protein stability index (san1∆): 3.1 ± 0.075
protein stability index (ubr1∆): 3.11 ± 0.078

SFFHQSNMQKSLLPYYH [RPN3]
protein stability index (doa10∆): 1.66 ± 0.037
protein stability index (pdr5∆): 1.67 ± 0.041
protein stability index (san1∆): 1.63 ± 0.07
protein stability index (ubr1∆): 1.9 ± 0.03

SFGNREEFINKLVKAMN [RPL7B]
protein stability index (doa10∆): 2.03 ± 0.13
protein stability index (pdr5∆): 1.94 ± 0.17
protein stability index (ubr1∆): 2.75 ± 0.073

SFGNREEFINKLVKSMN [RPL7A]
protein stability index (doa10∆): 2.52 ± 0.11
protein stability index (pdr5∆): 2.6 ± 0.11
protein stability index (san1∆): 2.29 ± 0.18
protein stability index (ubr1∆): 2.76 ± 0.071

SFLEGSKALNSILESSM [RGR1]
protein stability index (doa10∆): 1.81 ± 0.19
protein stability index (pdr5∆): 1.59 ± 0.1
protein stability index (san1∆): 3.09 ± 0.21
protein stability index (ubr1∆): 2.02 ± 0.13

SFLESVIRDSVTYTEHA [HHF1]
protein stability index (doa10∆): 2.82 ± 0.077
protein stability index (pdr5∆): 2.29 ± 0.064
protein stability index (san1∆): 2.17 ± 0.058
protein stability index (ubr1∆): 2.47 ± 0.049

SFLGYLRYVKQIEGPFL [ISW2]
protein stability index (doa10∆): 2.28 ± 0.061
protein stability index (pdr5∆): 2.42 ± 0.046
protein stability index (san1∆): 2.45 ± 0.053
protein stability index (ubr1∆): 2.4 ± 0.04

SFPILDQCVGQVGLNFE [YMR129W/POM152]
protein stability index (doa10∆): 3.07 ± 0.083
protein stability index (pdr5∆): 2.96 ± 0.11
protein stability index (san1∆): 3.1 ± 0.056
protein stability index (ubr1∆): 3.02 ± 0.07

SFRIKQKMAKAKKQNRP [RPL39]
protein stability index (doa10∆): 2.47 ± 0.17
protein stability index (pdr5∆): 2.78 ± 0.097
protein stability index (san1∆): 2.93 ± 0.091
protein stability index (ubr1∆): 2.93 ± 0.092

SFSLTTFSPSGKLGQID [PRE8]
protein stability index (doa10∆): 3 ± 0.14
protein stability index (pdr5∆): 2.67 ± 0.1
protein stability index (san1∆): 3.01 ± 0.074
protein stability index (ubr1∆): 3.08 ± 0.073

SFSLTVSKEQFLKDADV [YJL039C/NUP192]
protein stability index (doa10∆): 1.47 ± 0.041
protein stability index (pdr5∆): 1.45 ± 0.056
protein stability index (san1∆): 1.54 ± 0.11
protein stability index (ubr1∆): 1.64 ± 0.045

SFTLLNQLSQTNKLLFK [NUT1]
protein stability index (doa10∆): 2.81 ± 0.09
protein stability index (pdr5∆): 2.35 ± 0.055
protein stability index (san1∆): 2.71 ± 0.077
protein stability index (ubr1∆): 2.33 ± 0.057

SFTYELKQHNQNNLPPN [BRR2]
protein stability index (doa10∆): 2.95 ± 0.094
protein stability index (pdr5∆): 3.21 ± 0.087
protein stability index (san1∆): 2.78 ± 0.1
protein stability index (ubr1∆): 2.9 ± 0.12

SFVFGQAAAKPSLEKSS [YLR335W/NUP2]
protein stability index (doa10∆): 1.79 ± 0.1
protein stability index (pdr5∆): 2.5 ± 0.1
protein stability index (san1∆): 2.21 ± 0.14
protein stability index (ubr1∆): 2.67 ± 0.09

SGEDTNVGLPILKSLKN [YOR098C/NUP1]
protein stability index (doa10∆): 2.95 ± 0.1
protein stability index (pdr5∆): 3.16 ± 0.13
protein stability index (san1∆): 2.85 ± 0.069
protein stability index (ubr1∆): 3.28 ± 0.12

SGGGDSEVQRTMLELLN [RPT6]
protein stability index (doa10∆): 3.22 ± 0.18
protein stability index (pdr5∆): 2.42 ± 0.19
protein stability index (ubr1∆): 3.42 ± 0.066

SGGNNTATIINNESSDD [PCI8]
protein stability index (doa10∆): 2.63 ± 0.091
protein stability index (pdr5∆): 2.65 ± 0.087
protein stability index (san1∆): 2.69 ± 0.092
protein stability index (ubr1∆): 3.17 ± 0.055

From the supplement of paper PMC9732359
